B1: KAT8 regulatory NSL complex subunit 2, residues 28 to 91; numbered along this chain, Q9H9L4 (parent)
chain: CAFTHRPCSHPRLEGQEFCIKHILEDKNAPFKQCSYISTKNGKRCPNAAPKPEKKDGVSFCAEH

± gives the uncertainty stated by the source.

This series covers variants of B1. As to the kind of experiment: abundance fitness (aPCA) (normalised: wild type 0, dead -1); higher = more abundant; growth selection in yeast, the domain comes from the species named. The note with it: Homo sapiens.
Regarding CAFTHRPCSHPRLEGQEFCTKHILEDKNAPFKQCSYISTKNGKRCPNAAPKPEKKDGVSFCAEH, the abundance fitness is -0.2 ± 0.082.

As to CAFTHRPCSHPRLEGQEFCIKHILEDKNAPFKQCSYISTKNHKRCPNAAPKPEKKDGVSFCAEH, the abundance fitness is -0.141 ± 0.092.

CAFTHRPCSHPRLEGQEFCIKHINEDKNAPFKQCSYISTKNGKRCPNAAPKPEKKDGVSFCAEH: the abundance fitness was -0.348 ± 0.084.

With CAFTHRPCSHPRLEGQEFCIPHILEDKNAPFKQCSYISTKNGKRCPNAAPKPEKKDGVSFCAEH, the abundance fitness is -0.904 ± 0.085.

As to CAFTHSPCSHPRLEGQEFCIKHILEDKNAPFKQCSYISTKNGKRCPNAAPKPEKKDGVSFCAEH, the abundance fitness was -0.055 ± 0.057.

Turning to CAFTHRPCSHPRLEGQEFCIKRILEDKNAPFKQCSYISTKNGKRCPNAAPKPEKKDGVSFCAEH, the abundance fitness is -0.812 ± 0.053.

Regarding CAFTHRPCSHPRLEGQEFCIKHILEDKNAPFKQCSDISTKNGKRCPNAAPKPEKKDGVSFCAEH, the abundance fitness was -0.162 ± 0.084.

For the variant CAFTHRPCSHPRLEGQEFCIKHILEDKNAPFKQCSYISTKNGKRCPNAAPKPEKKDGVSFCAVH, the abundance fitness is -0.175 ± 0.052.

As to CAFTHRPCSHPRLEGQEFCIKHILEDKNAPFKQCSYISTKNGKRCPNAAPKLEKKDGVSFCAEH, the abundance fitness was -0.106 ± 0.046.

With CAFTHRPCSHPRLEGQEFCIKHILEDKNAPFKQCSYISTKNGKRCPNAAPKGEKKDGVSFCAEH, the abundance fitness was -0.068 ± 0.054.

Take CAFTHRPCSHPRLEGQEFCIKHILEDKNGPFKQCSYISTKNGKRCPNAAPKPEKKDGVSFCAEH: the abundance fitness was -0.128 ± 0.048.

In the case of CAFTHRPCSHPRLEGQEFCIKHILEDKNSPFKQCSYISTKNGKRCPNAAPKPEKKDGVSFCAEH, the abundance fitness is -0.048 ± 0.072.

Regarding CAFTHRPCSHPRLEGQEFCIKHILEDKNLPFKQCSYISTKNGKRCPNAAPKPEKKDGVSFCAEH, the abundance fitness is -0.217 ± 0.065.

Take CAFTHRPCSHPRLEGQEFCIKHILEDKNATFKQCSYISTKNGKRCPNAAPKPEKKDGVSFCAEH: the abundance fitness is -0.184 ± 0.066.

CAFTHRPCSHPRLEGQEFCIKHILEDKNAPFKLCSYISTKNGKRCPNAAPKPEKKDGVSFCAEH: the abundance fitness worked out at 0.004 ± 0.055.

Consider CEFTHRPCSHPRLEGQEFCIKHILEDKNAPFKQCSYISTKNGKRCPNAAPKPEKKDGVSFCAEH, for which the abundance fitness is -0.522 ± 0.1.

On to CAFTHRPCSHPRLEGQEFCIKHILEDKNAPFKQCSYISTKNGKRRPNAAPKPEKKDGVSFCAEH, for which the abundance fitness was -0.635 ± 0.059.

Take CAFTHRPCSHPRLEGQEACIKHILEDKNAPFKQCSYISTKNGKRCPNAAPKPEKKDGVSFCAEH: the abundance fitness was -0.572 ± 0.064.

In the case of CAFTHRPSSHPRLEGQEFCIKHILEDKNAPFKQCSYISTKNGKRCPNAAPKPEKKDGVSFCAEH, the abundance fitness is -0.891 ± 0.059.

Take CAFTHRPCSHPRLEGQEFCIKHILEDKNAPFKQCSYISTKNGKRCPNAAPKPEKKDGVSFCIEH: the abundance fitness was -0.057 ± 0.076.

With CAFTHRPCSHPRLEGQEFCIKHILEDKNAPFKQCSYISTKNGKRCPNAAPKPEKKDGVSFEAEH, the abundance fitness was -0.399 ± 0.065.

As for CAFTHRPCSHPRLEGQEFCIKHILEDKNAPFKQCSYISTKNGKRCPNAAPKPEKKDGVSFAAEH, the abundance fitness is -0.483 ± 0.054.

As for CAFTHRPCSHPRLEGQEFCIKHILEDKNAPFKQCSYISTKNGKRCPNAAPKPEKKDGVGFCAEH, the abundance fitness was -0.024 ± 0.092.

Turning to CAFTHRPCSHPRLEGQEFCIKHILEDKNAPFKQCSYISTKNGKRCPNAAPKPEKKDGSSFCAEH, the abundance fitness is -0.088 ± 0.072.

Consider CAFTHRPCSHPRLEGQEFCIKHQLEDKNAPFKQCSYISTKNGKRCPNAAPKPEKKDGVSFCAEH, for which the abundance fitness is -0.136 ± 0.085.

With CAFTHRPCSHPRLEGQEFCIKHNLEDKNAPFKQCSYISTKNGKRCPNAAPKPEKKDGVSFCAEH, the abundance fitness was -0.463 ± 0.26.

For the variant CAFTHRPCSHPRLEGQEFCIKHFLEDKNAPFKQCSYISTKNGKRCPNAAPKPEKKDGVSFCAEH, the abundance fitness is -0.404 ± 0.15.

For the variant CAFTHRPCSHPRLEGQEFCIKHHLEDKNAPFKQCSYISTKNGKRCPNAAPKPEKKDGVSFCAEH, the abundance fitness was -0.246 ± 0.1.

In the case of CAFTHRPCSHPRLEPQEFCIKHILEDKNAPFKQCSYISTKNGKRCPNAAPKPEKKDGVSFCAEH, the abundance fitness is -0.543 ± 0.04.

In the case of CAGTHRPCSHPRLEGQEFCIKHILEDKNAPFKQCSYISTKNGKRCPNAAPKPEKKDGVSFCAEH, the abundance fitness is -0.154 ± 0.064.

As to CARTHRPCSHPRLEGQEFCIKHILEDKNAPFKQCSYISTKNGKRCPNAAPKPEKKDGVSFCAEH, the abundance fitness is -0.174 ± 0.044.

Regarding CAKTHRPCSHPRLEGQEFCIKHILEDKNAPFKQCSYISTKNGKRCPNAAPKPEKKDGVSFCAEH, the abundance fitness is -0.287 ± 0.15.

Take CAFTHRPCSHPRLEGQEFCIKHILEDKNAPFKQCSYIWTKNGKRCPNAAPKPEKKDGVSFCAEH: the abundance fitness is -0.076 ± 0.05.

In the case of CAFTHRPCSHPRLEGQEFFIKHILEDKNAPFKQCSYISTKNGKRCPNAAPKPEKKDGVSFCAEH, the abundance fitness is -1.16 ± 0.37.

For CAFTHRPCSHPRLEGQEFCIKHILEDKNAPFKQCSYISTKNGKRCPNAAHKPEKKDGVSFCAEH, the abundance fitness is -0.135 ± 0.07.

Regarding CAFTHRPCSHPRLEGQEFCIKHILEDKNAPFKQCSYCSTKNGKRCPNAAPKPEKKDGVSFCAEH, the abundance fitness is -0.032 ± 0.12.

On to CAFQHRPCSHPRLEGQEFCIKHILEDKNAPFKQCSYISTKNGKRCPNAAPKPEKKDGVSFCAEH, for which the abundance fitness is -0.494 ± 0.099.

On to CAFTHRPCSHIRLEGQEFCIKHILEDKNAPFKQCSYISTKNGKRCPNAAPKPEKKDGVSFCAEH, for which the abundance fitness was -0.298 ± 0.14.

Turning to CAFTHRPCSHMRLEGQEFCIKHILEDKNAPFKQCSYISTKNGKRCPNAAPKPEKKDGVSFCAEH, the abundance fitness was -0.092 ± 0.058.

As for CAFTHRPCSHWRLEGQEFCIKHILEDKNAPFKQCSYISTKNGKRCPNAAPKPEKKDGVSFCAEH, the abundance fitness was -0.555 ± 0.079.

For the variant CAFTHRPCSHPRLEGQEFCIKHILEDKNAPAKQCSYISTKNGKRCPNAAPKPEKKDGVSFCAEH, the abundance fitness was -0.197 ± 0.046.

CAFTHRPCSHPRLEGQEFCIKHILEDKNAPFKQCSYISTKNGKQCPNAAPKPEKKDGVSFCAEH: the abundance fitness came out at 0.005 ± 0.065.

(Values after the Human Domainome abundance scans (Beltran et al. 2025).)
